The experiment deals with T1, single chain urokinase-type plasminogen activator (UniProt P00749 21-431, radiolabeled with 125I (iodobeads) in the binding assays).
T1 construct: scuPA alone, without peptide; also called scuPA; recombinant scuPA
The experiment in a line: 125I-scuPA on LM-TK- cells with peptide (FIG. 1A); indirect read-out of the peptide acting on scuPA. As for the experimental part: The cells were washed four times with binding buffer, solubilized in 0.1 N NaOH, and the cell extract was assessed for radioactivity. […] Assays were repeated at least three times, and data presented herein represent the mean and standard deviation.

B1: peptide EEIIMR (SEQ ID NO: 5) (peptide)
peptide: EEIIMR
notes: Synthetic variant of EEIIMD with Arg at the carboxyl terminus; also called control peptide EEIIMR
For B1, the “scuPA-binding-promoting activity relative to peptide EEIIMD” value is around 20%.

The record behind these values is patent US7247611 (University of Pennsylvania, dated 2007).
